Key:
[1] = biological target: T1, DesKC_H188E, DesKC trapped in the phosphotransferase state (Bacillus subtilis, UniProt O34757, H188E); assay: crystal structure
T1 sequence: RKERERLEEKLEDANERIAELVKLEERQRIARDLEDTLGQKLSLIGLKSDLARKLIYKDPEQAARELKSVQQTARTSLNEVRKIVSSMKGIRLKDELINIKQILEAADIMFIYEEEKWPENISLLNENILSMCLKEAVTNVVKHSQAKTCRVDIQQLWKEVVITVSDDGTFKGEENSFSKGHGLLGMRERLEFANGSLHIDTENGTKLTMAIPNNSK

[2] = biological target: the molecule itself; assay: SEC
[3] = biological target: the molecule itself

B1: DesR_REC-Q10A, receiver domain of DesR with Q10A, as crystallised with DesKC_H188E (domain or fragment)
chain: MISIFIAEDAQMLLGALGSLLNLEDDMEVVGKGTTGQDAVDFVKKRQPDVCIMDIEMPGKTGLEAAEELKDTGCKIIILTTFARPGYFQRAIKAGVKGYLLKDSPSEELANAIRSVMNGKRIYAPELMEDLYSEA
Question: Does B1 bind [1]?
Answer: binds

B2: Phosphorylated DesR-REC (P~DesRREC), wild type (domain or fragment)
chain: MISIFIAEDQQMLLGALGSLLNLEDDMEVVGKGTTGQDAVDFVKKRQPDVCIMDIEMPGKTGLEAAEELKDTGCKIIILTTFARPGYFQRAIKAGVKGYLLKDSPSEELANAIRSVMNGKRIYAPELMEDLYSEA
Question: Does B2 bind [2]?
Answer: binds

B3: Phosphorylated DesR_REC-Q10A (domain or fragment)
chain: MISIFIAEDAQMLLGALGSLLNLEDDMEVVGKGTTGQDAVDFVKKRQPDVCIMDIEMPGKTGLEAAEELKDTGCKIIILTTFARPGYFQRAIKAGVKGYLLKDSPSEELANAIRSVMNGKRIYAPELMEDLYSEA
Question: How did the Kd [3] turn out when B3 was run?
Answer: 1440 nM

Question: And the “fold increase of the KD of dimerization against wild type P~RR” value [3]?
Answer: 4 fold

Reference: publication doi:10.1101/2021.11.12.468217 (bioRxiv, 2021)
